These results are taken from article PMC5376981 (Scientific Reports, 2014).

For assay [1], the target named is full-length VAR2CSA recombinant protein (3D7-DBL1X-6ε) (Plasmodium falciparum 3D7, UniProt Q8I639, strain). Nature of the assay: SPR.
Assay [2] addresses native VAR2CSA on FCR3-CSA infected erythrocytes (Plasmodium falciparum FCR3, UniProt Q6UDW7, strain). Nature of the assay: flow cytometry on cells. (A flow cytometer gives signals particle by particle.)
Assay [3] has as its target FCR3-DBL3X (Plasmodium falciparum FCR3, UniProt Q6UDW7, strain). Nature of the assay: ELISA. Background: ELISA stands for enzyme-linked immunosorbent assay.
The target in assay [4] is 3D7-DBL2X (Plasmodium falciparum 3D7, UniProt Q8I639, strain). Nature of the assay: ELISA.
For assay [5], the target named is FCR3-DBL6ε (Plasmodium falciparum FCR3, UniProt Q6UDW7, strain). Nature of the assay: ELISA.
Assay [6] addresses native VAR2CSA on NF54-CSA infected erythrocytes (Plasmodium falciparum NF54 (parent of …, UniProt Q8I639, strain)). Nature of the assay: flow cytometry on cells.
Assay [7] deals with 3D7-DBL1X-3X (Plasmodium falciparum 3D7, UniProt Q8I639, strain). The assay is described as follows: ELISA.
Assay [8] concerns the target 3D7-DBL1X (Plasmodium falciparum 3D7, UniProt Q8I639, strain). The assay is described as follows: ELISA.

Changes are numbered by the printed parent chain.

B1: VHH891 (VHH)
VHH: QVQLQESGGGLVQTGDSLRLSCAASGRTFSSYAMGWFRQAPGKEREFVAAITWGDGSADYADSVKGRFTISRDNAENTVYLQMNSLKPEDTAVYYCAAETVGAPIYTLGYSEAYDYWGQGTQVTVSS
As for B1, in assay [1], the Kd (commonly a measure of binding affinity in units of concentration) was determined as 700 nM; the koff (in general, a measure of how fast the partners let go of each other) stood at 0.0014 s⁻¹; the kon (usually the rate constant with which the complex forms) amounted to 2050 M⁻¹ s⁻¹. In addition, in assay [2], the binding result was “binds”. Also, the binding result in assay [3] is listed as “no binding (tested: 0.3 µg/ml)”. Moreover, the binding result in assay [4] is on record as “no binding (tested: 0.3 µg/ml)”.

B2: VHH871 (VHH)
VHH: QVQLQESGGGLVQAGGSLRLSCAASGSIFSIHAMGWYRQAPGKQRELVAAITSGGSTNYGDSVKGRFTISEDNAKNTVYLQMNGLKPEDTAVYYCAADNDGLGYVYWGQGTQVTVSS
Consider B2, for which, in assay [1], the Kd was 200 nM, the dissociation rate constant (koff) worked out at 3.9e-05 s⁻¹ and the on-rate (kon) turned out to be 216 M⁻¹ s⁻¹. Also, the binding result in assay [2] is on record as “binds”. Moreover, the binding result in assay [3] was “no binding (tested: 0.3 µg/ml)”. The binding result in assay [4] was “no binding (tested: 0.3 µg/ml)”.

B3: VHH867 (VHH)
VHH: QVQLQESGGGLVQAGGSLRLSCAASGFTLDDYGIGWFRQAPGKEREGVSFISSSDGTTDYADSVKGRFTISSDNAKNTVYLQMNSLKPEDTAVYYCAAVEQRVPFLSVLHEAIYDYWGQGTQVTVSS
As for B3, the Kd in assay [1] turned out to be 300 nM. Moreover, the koff in assay [1] turned out to be 0.0027 s⁻¹. Also, the kon in assay [1] worked out at 8690 M⁻¹ s⁻¹. Further, the binding result is recorded as “binds” in assay [2], “no binding (tested: 0.3 µg/ml)” in assay [3] and “no binding (tested: 0.3 µg/ml)” in assay [4].

B4: VHH889 (VHH)
VHH: QVQLQESGGGLVQAGGSLRLSCAASGRSFSSYAMGWFRQAPGKEREFVATITWSGGSTYYADSVKGRFTISGDSAENTVYLQMNSLKPEDTAVYYCAADETSAPLYRAYEAQYDYWGQGTQVTVSS
B4: in assay [1], the Kd stood at 700 nM, the koff came out at 0.035 s⁻¹ and the kon was 54000 M⁻¹ s⁻¹. Moreover, the binding result in assay [2] is listed as “binds”. Besides, the binding result in assay [3] is given as “no binding (tested: 0.3 µg/ml)”. For the same molecule, in assay [4], the binding result is “no binding (tested: 0.3 µg/ml)”.

B5: VHH859 (VHH)
VHH: QVQLQESGGGLVQAGGSLRLSCAASGRTFSSYAMGWFRQAPGKEREFVAAISWNGSSTYYADSVKGRFTISRDNAKNTVYLQMNSLKPEDTAVYYCAANDLLVPELLMSRVEVYDYWGQGTQVTVSS
B5: in assay [1], the dissociation constant (Kd) was found to be 300 nM, the koff came to 0.0032 s⁻¹ and the kon worked out at 12000 M⁻¹ s⁻¹. In addition, the binding result in assay [2] is reported as “binds”. For the same molecule, the binding result in assay [3] is reported as “no binding (tested: 0.3 µg/ml)”. In addition, the binding result in assay [4] is given as “no binding (tested: 0.3 µg/ml)”.

B6: VHH883 (VHH)
VHH: B5 VHH with N54S, S56D, S57T, Y80S, L102M, E105A, S109P, V111L, V113S
Turning to B6, in assay [1], the Kd came out at 10 nM, the koff is 0.0017 s⁻¹ and the kon was determined as 170000 M⁻¹ s⁻¹. For the same molecule, in assay [2], the binding result is reported as “binds”. Besides, the binding result in assay [3] was “no binding (tested: 0.3 µg/ml)”. In assay [4], the binding result is “no binding (tested: 0.3 µg/ml)”.

B7: VHH880 (VHH)
VHH: B5 VHH with S31D, E44D, N54S, S56D, S57R, K76E, Y95H, L102M, S109P, V113S
In the case of B7, in assay [1], the Kd stood at 100 nM, the koff is 0.0018 s⁻¹ and the kon is 15000 M⁻¹ s⁻¹. In addition, in assay [2], the binding result is recorded as “binds”. The binding result in assay [3] was “no binding (tested: 0.3 µg/ml)”. In addition, the binding result in assay [4] is “no binding (tested: 0.3 µg/ml)”.

B8: VHH879 (VHH)
VHH: B5 VHH with S31D, E44D, N54S, S56D, S57R, Y95H, L102M, S109P, V113S
In the case of B8, in assay [1], the Kd is 19 nM, the off-rate (koff) amounted to 0.0015 s⁻¹ and the kon amounted to 79000 M⁻¹ s⁻¹. Further, the binding result in assay [2] is reported as “binds”. Also, the binding result in assay [3] is recorded as “no binding (tested: 0.3 µg/ml)”. Besides, the binding result in assay [4] is recorded as “no binding (tested: 0.3 µg/ml)”.

B9: VHH863 (VHH)
VHH: QVQLQESGGGLVQTGGSLRLSCAASGRTFMDYVMGWFRQAPGKEREFVASISWTDSTRYTDSVKGRFTASRDDAEATVYLQMNNLQFEDTAVYYCARGAGRGHSVSAGDYVYWGQGTQVTVSS
Turning to B9, in assay [1], the Kd came out at 46 nM, the koff came to 0.0014 s⁻¹ and the kon came out at 31000 M⁻¹ s⁻¹. In addition, the binding result in assay [2] is listed as “no binding (tested: 100 µg/ml)”. The binding result in assay [5] was “no binding (tested: 0.3 µg/ml)”.

B10: VHH864 (VHH)
VHH: B9 VHH with E75K
B10: in assay [1], the Kd stood at 18 nM, the koff was 0.00063 s⁻¹ and the on-rate constant (kon) stood at 34000 M⁻¹ s⁻¹. For the same molecule, the binding result in assay [2] is given as “no binding (tested: 100 µg/ml)”. Moreover, the binding result in assay [5] is recorded as “no binding (tested: 0.3 µg/ml)”.

B11: VHH893 (VHH)
VHH: QVQLQESGGGLVQAGGSLRLSCAASGFTFDDYAIGWFRQAPGKEREGVSCISSGDGGTYYADSVKGRFTISSDNAENTVALQMNSLKPEDTAVYYCAAVYGSCWDGLLYRTDSYEYDGWGQGTQVTVSS
Consider B11, for which, in assay [1], the Kd worked out at 27 nM, the koff was found to be 0.0017 s⁻¹ and the kon was 60000 M⁻¹ s⁻¹. Moreover, the binding result in assay [2] is given as “no binding (tested: 100 µg/ml)”.

B12: VHH895 (VHH)
VHH: QVQLQESGGGLVQAGGSLRVSCAASGRALSDYAMGWFRQTPGKEREFVAAISWNGGNTYYADSVKGRFTISRDNAENTVYLQMNSLKPEDTAVYYCAANDLAVPGLLMPRVETYDYWGQGTQVTVSS
As to B12, in assay [1], the Kd was 800 nM, the koff worked out at 87.2 s⁻¹ and the kon came out at 1.1e+08 M⁻¹ s⁻¹. For the same molecule, the binding result in assay [2] is “binds”.

B13: VHH860 (VHH)
VHH: B12 VHH with V20L, L29F, T40A, E46D, A61S, G105E
Turning to B13, in assay [1], the Kd is 28 nM, the off-rate constant (koff) is 0.0013 s⁻¹ and the kon came out at 46000 M⁻¹ s⁻¹. The binding result in assay [2] is on record as “binds”. For the same molecule, in assay [3], the binding result is “no binding (tested: 0.3 µg/ml)”. The binding result in assay [4] is “no binding (tested: 0.3 µg/ml)”.

B14: VHH884 (VHH)
VHH: B5 VHH with S31N, S56G, V64A, K76E, Y95R, L102M, S109P, V113T
As for B14, in assay [1], the dissociation constant (Kd) came out at 400 nM. In addition, the koff in assay [1] came out at 0.0036 s⁻¹. Moreover, the kon in assay [1] was found to be 9860 M⁻¹ s⁻¹. Further, the results for the binding result in assay [2], in assay [3] and in assay [4] were “binds”, “no binding (tested: 0.3 µg/ml)” and “no binding (tested: 0.3 µg/ml)”, respectively.

B15: VHH905 (VHH)
VHH: B5 VHH with S56G, K76E, V79G, L102M, S109P, V113T
With B15, the binding result in assay [2], in assay [6], in assay [7] and in assay [8] was “binds” in each case.

B16: VHH897 (VHH)
VHH: B12 VHH with V20I, A28T, L29F, T40A, G56D, E76K
With B16, in assay [1], the Kd came out at 43 nM, the koff stood at 0.0013 s⁻¹ and the kon was 31000 M⁻¹ s⁻¹. Further, in assay [2], the binding result is given as “binds”.
